The text below walks through data of patent publication US20080107658A1 (AstraZeneca / MedImmune, published 2008).

What all share (experiment): cell-based or functional assay
The target of experiment [1] is human nerve growth factor (beta-NGF) (human, UniProt P01138 122-241).
The target of experiment [2] is rat nerve growth factor (beta-NGF) (rat, UniProt P25427 122-241).
The target in experiment [3] is mouse nerve growth factor (mouse, UniProt P01139 122-241).
Chain of mouse nerve growth factor (P01139 122-241): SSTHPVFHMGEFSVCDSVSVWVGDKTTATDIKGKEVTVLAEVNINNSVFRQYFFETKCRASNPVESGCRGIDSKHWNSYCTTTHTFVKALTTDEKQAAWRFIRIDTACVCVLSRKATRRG

Chain of rat nerve growth factor (beta-NGF) (P25427 122-241): as the sequence (P01139 122-241) above, with A40G, R50K, S61P, E94D, T117A counted along it
Chain of human nerve growth factor (beta-NGF) (P01138 122-241): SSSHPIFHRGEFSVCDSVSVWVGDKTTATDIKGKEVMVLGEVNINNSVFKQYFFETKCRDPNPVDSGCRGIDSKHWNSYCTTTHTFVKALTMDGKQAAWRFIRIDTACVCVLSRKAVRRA

B1: 1126H5 human IgG4 (antibody, V domains shown)
VH: EVQLVQSGAEVKKPGSSVKVSCKASGGTFSTYGISWVRQAPGQGLEWIGGIIPIFDAGNSAQSFQGRVTITADESTSTAHMEVSSLRSEDTAVYYCASSSRIYDHHIQKGGYYDMDVWGQGTMVTVSS
VL: QAVLTQPSSVSTPPGQKVTISCSGSSSNIGNNYVSWYQQLPGTAPKLLIYDNNKRPSGIPDRFSGSKSGTSATLGITGLQTGDEADYYCGTWDSSLSAWVFGGGTKLTVL
In the case of B1, the “IC50, FLIPR calcium mobilisation” value in experiment [1] was found to be 0.38 nM; in experiment [2], 0.15 nM; in experiment [3], 0.23 nM. For the same molecule, the “IC50, PC12 cell survival” value in experiment [1] stood at 8.7 nM.

B2: 1127D9 human IgG4 (antibody, V domains shown)
VH: EVQLVQSGAEVKKPGSSVKVSCKASGGTFSTYGISWVRQAPGQGLEWIGGIIPIFDTGNSAQSFQGRVTITADESTSTAYMEVSSLRSDDTAVYYCASSSRIYDYHTIAYYDMDVWGQGTMVTVSS
VL: QAVLTQPSSVSTPPGQKVTISCSGSSSNIGNNYVSWYQQLPGTAPKLLIYDNNKRPSGIPDRFSGSKSGTSATLGITGLQTGDEADYYCGTWDSSLSAWVFGGGTKLTVL
On to B2, for which the “IC50, FLIPR calcium mobilisation” value in experiment [1] worked out at 0.4 nM; in experiment [2], 0.22 nM; in experiment [3] it was 0.21 nM. Further, the “IC50, PC12 cell survival” value in experiment [1] was 0.57 nM.

B3: 1230H7 human IgG4 (antibody, V domains shown)
VH: EMQLVQSGAEVKKPGSSVKVSCKASGGTFSTYGISWVRQAPGQGLEWIGGIIPIFDTGNSAQSFQGRVTITADESTSTAYMEVSSLRSDDTAVYYCASSSRIYDFNSALISYYDMDVWGQGTMVTVSS
VL: QAVLTQPSSVSTPPGQKVTISCSGSSSNIGNNYVSWYQQLPGTAPKLLIYDNNKRPSGIPDRFSGSKSGTSATLGITGLQTGDEADYYCGTWDSSLSAWVFGGGTKLTV
For B3, the figures for the “IC50, FLIPR calcium mobilisation” value in experiment [1], in experiment [2] and in experiment [3] were 0.27 nM, 0.18 nM and 0.15 nM, respectively. Besides, the entries for the “IC50, PC12 cell survival” value in experiment [1] and in experiment [2] were 0.42 nM and 0.32 nM, respectively.

B4: 1126F1 human IgG4 (antibody, V domains shown)
VH: EVQLVQTGAEVKKPGSSVKVSCKASGGTFSTYGISWVRQAPGQGLEWIGGIIPIFDTGNSAQSFQGRVTITADESTSTAYMEVSSLRSDDTAVYYCASSSRIYDANRQAVPYYDMDVWGQGTMVTVSS
VL: QAVLTQPSSVSTPPGQMVTISCSGSSSDIGNNYVSWYQQLPGTAPKLLIYDNNKRPSGIPDRFSGSKSGTSATLGITGLQTGDEADYYCGTWDSSLSAWVFGGGTKLTVL
As for B4, the “IC50, FLIPR calcium mobilisation” value in experiment [1] worked out at 0.35 nM; in experiment [2] it was 0.15 nM; in experiment [3], 0.22 nM. Moreover, the “IC50, PC12 cell survival” value in experiment [1] came out at 2.9 nM.

B5: 1147D2 human IgG4 (antibody, V domains shown)
VH: EVQLVQSGAEVKKPGSSVRISCKASGGTFSTYGVSWVRQAPGQGLEWIGGIIPIFDTGNSAQSFQGRVTITADESTSTAYMEVSSLRSDDTAVYYCASSSRIYDLNPSLTAYYDMDVWGQGTMVTVSS
VL: QAVLTQPSSVSTPPGQKVTISCSGSSSNIGNNYVSWYQQLPGTAPKLLIYDNNKRPSGVPDRFSGSKSGTSATLGITGLQTGDEADYYCGTWDSSLSAWVFGGGTKLTVL
With B5, the figures for the “IC50, FLIPR calcium mobilisation” value in experiment [1], in experiment [2] and in experiment [3] were 0.36 nM, 0.21 nM and 0.24 nM, respectively. The “IC50, PC12 cell survival” value in experiment [1] is 0.51 nM.

B6: G1230H7 human IgG4 (antibody, V domains shown)
VH: QVQLVQSGAEVKKPGSSVKVSCKASGGTFSTYGISWVRQAPGQGLEWMGGIIPIFDTGNSAQSFQGRVTITADESTSTAYMELSSLRSEDTAVYYCARSSRIYDFNSALISYYDMDVWGQGTMVTVSS
VL: QSVLTQPPSVSAAPGQKVTISCSGSSSNIGNNYVSWYQQLPGTAPKLLIYDNNKRPSGIPDRFSGSKSGTSATLGITGLQTGDEADYYCGTWDSSLSAWVFGGGTKLTVL
Turning to B6, the “IC50, FLIPR calcium mobilisation” value in experiment [1] came to 0.31 nM; in experiment [2], 0.34 nM; in experiment [3] it was 0.25 nM. For the same molecule, the “IC50, PC12 cell survival” value worked out at 2.5 nM in experiment [1] and 7.5 nM in experiment [2].

B7: 1134D9 human IgG4 (antibody, V domains shown)
VH: EVQLVQSGAEVKKPGSSVKVSCKASGGTFSTYGISWVRQAPGQGLEWIGGIIPIFDTGNSAQSFQGRVAITADESTSTAYMEVSSLRSDDTAVYYCASSSRIYDLNPSLTAYYDMDVWGQGTMVTVSS
VL: QAVLTQPSSVSTPPGQKVTISCSGSSSNIGNNYVSWYQQLPGTAPKLLIYDNNKRPSGIPDRFSGSKSGTSATLGITGLQTGDEADYYCGTWDSGLSAWVFGGGTKLTVL
With B7, the “IC50, FLIPR calcium mobilisation” value is 0.31 nM in experiment [1], 0.14 nM in experiment [2] and 0.16 nM in experiment [3]. Moreover, the “IC50, PC12 cell survival” value in experiment [1] was determined as 0.54 nM.

B8: 1145D1 human IgG4 (antibody, V domains shown)
VH: EVQLVQSGAEVKKPGSSVKVSCKASGGTFSTYGISWVRQAPGQGLEWIGGIIPIFDTSNSAQSFQGRVTITADESTSTAYMEVSSLRSDDTAVYYCASSSRIYDFRTLYSTYYDMDVWGQGTMVTVSS
VL: QAVLTQPSSVSTPPGQKVTISCSGSSSNIGNNYVSWYQQLPGTAPKLLIYDNNKRPSGISDRFSGSKSGTSATLGIAGLQTGDEADYYCGTWDSSLSAWVFGGGTKLTVL
Consider B8, for which the “IC50, FLIPR calcium mobilisation” value in experiment [1] was determined as 0.36 nM; in experiment [2], 0.17 nM; in experiment [3] it was 0.24 nM. For the same molecule, the “IC50, PC12 cell survival” value in experiment [1] is 0.66 nM.

B9: 1132A9 human IgG4 (antibody, V domains shown)
VH: EVQLVQSGAEVKKPGSSVKVSCKASGGTFSTYGISWVRQAPGQGLEWIGGIIPIFGTGNSAQSFQGRVTITADESTSTAYMEVSSLRSDDTAVYYCASSSRIYDFEPSLIYYYDMDVWGQGTMVTVSS
VL: QAVLTQPSSVSTPPGQKVTISCSGSSSNIGNNYVSWYQQLPGTAPKLLIYDNNKRPSGIPDRFSGSKSGTSATLGITGLQTGDEADYYCGTWDSSLSAWVFGGGTKLTVL
Regarding B9, the results for the “IC50, FLIPR calcium mobilisation” value in experiment [1], in experiment [2] and in experiment [3] were 0.39 nM, 0.25 nM and 0.33 nM, respectively. The “IC50, PC12 cell survival” value in experiment [1] is 0.9 nM.

B10: 1132H9 human IgG4 (antibody, V domains shown)
VH: EVQLVQSGAEVKKPGSSVKVSCKASGGTFSTYGISWVRQAPGQGLEWIGGIIPIFDTGNSAQSFQGRVTITADESTSTAYMEVSSLRSDDTAVYYCASSSRIYDLNPSLTAYYDMDVWGQGTMVTVSS
VL: QAVLTQPSSVSTPPGQKVTISCSGSSSDIGNNYVSWYQQLPGTAPKLLIYDNNKRPTGIPDRFSGSKSGTSATLGITGLQTGDEADYYCGTWDSSLSAWVFGGGTKLTVL
Turning to B10, the “IC50, FLIPR calcium mobilisation” value amounted to 0.35 nM in experiment [1], 0.13 nM in experiment [2] and 0.16 nM in experiment [3]. Further, the “IC50, PC12 cell survival” value in experiment [1] came out at 0.55 nM.

B11: 1131H2 human IgG4 (antibody, V domains shown)
VH: EVQLVQSGAEVKKPGSTVKVSCKASGGTFSTYGISWVRQAPGQGLEWIGGIIPIFDTGNSAQSFQGRVTITADESTSTAYMEVSSLRSDDTAVYYCASSSRIYDLNPSLTAYYDMDVWGQGTMVTVSS
VL: QAVLTQPSSVSTPPGQKVTISCSGTSSNIGNNYVSWYQQLPGTAPKLLIYDNNKRPSGIPDRFSGSKSGTSATLGITGLQTGDEADYYCGTWDSSLSAWVFGGGTKLTVL
Regarding B11, the “IC50, FLIPR calcium mobilisation” value in experiment [1] worked out at 0.27 nM; in experiment [2], 0.11 nM; in experiment [3], 0.12 nM. For the same molecule, the “IC50, PC12 cell survival” value in experiment [1] was found to be 0.58 nM.

B12: 1126G5 human IgG4 (antibody, V domains shown)
VH: EVQLVQSGAEVKKPGSSVKVSCKASGGTFSTYGISWVRQAPGQGLEWIGGIIPIFDTGNSAQSFQGRVTITADESTSTAYMEVSSLRSDDTAVYYCASSSRIYDFTSGLAPYYDMDVWGQGTMVTVSS
VL: QAVLTQPSSVSTPPGQKVTISCSGSSSNIGNNYVSWYQQLPGTAPKLLIYDNNKRPPGIPDRFSGSKSGTSATLGITGLQTGDEADYYCGTWDSSLSTWVFGGGTKLTVL
In the case of B12, the “IC50, FLIPR calcium mobilisation” value in experiment [1] worked out at 0.23 nM; in experiment [2], 0.16 nM; in experiment [3], 0.16 nM. Further, the “IC50, PC12 cell survival” value in experiment [1] was 1.5 nM.

B13: 1127F9 human IgG4 (antibody, V domains shown)
VH: EVQLVQSGAEVKKPGSSVKVSCKASGGTFSTYGISWVRQAPGQGLEWIGGIIPIFDTGNSAQSFQGRVTITADESTSTAYMKVSSLRSDDTAVYYCASSSRIYDYIPGMRPYYDMDVWGQGTMVTVSS
VL: QAVLTQPSSVSTPPGQKVTISCSGNSSNIGNNYVSWYQQLPGTAPKLLIYDNNKRPSGIPDRFSGSRSGTLATLGITGLQTGDEADYYCGTWDSSLSAWVFGGGTKLTVL
Regarding B13, the “IC50, FLIPR calcium mobilisation” value in experiment [1] was 0.36 nM; in experiment [2], 0.14 nM; in experiment [3], 0.2 nM. For the same molecule, in experiment [1], the “IC50, PC12 cell survival” value was 0.59 nM.

B14: 1146D7 human IgG4 (antibody, V domains shown)
VH: EVQLVQSGAEVKKPGSSVKVSCKASGGTFSTYGISWVRQAPGQGLEWIGGIIPIFDTGNSAQSFQGRVTITADESTSTAYMEVSSLRSDDTAVYYCASSSRIYDLNPSLTAYYDMDVWGQGTMVTVSS
VL: QAVLTQPSSVSTPPGQEVTISCSGSSTNIGNNYVSWYQQLPGTAPKLLIYDNNKRPSGIPDRFSGSKSGTSATLGITGLQTGDEADYYCGTWDSSLSAWVFGGGTKLTVL
In the case of B14, the “IC50, FLIPR calcium mobilisation” value in experiment [1] was determined as 0.38 nM; in experiment [2] it was 0.33 nM; in experiment [3], 0.31 nM. Also, the “IC50, PC12 cell survival” value in experiment [1] worked out at 0.48 nM.

B15: 1131D7 human IgG4 (antibody, V domains shown)
VH: EVQLVQSGAEVKKPGSSVKVSCKASGGTFSTYGISWVRQAPGQGLEWIGGIIPIFDTGNSAQSFQGRVTITADESTSTAYMEVSSLRSDDTAVYYCASSSRIYDFNSSLIAYYDMDVWGQGTMVTVSS
VL: QAVLTQPSSVSTPPGQKVTISCSGSSSNIGNNYVSWYQQLPGTAPKLLIYDNNKRPSGIPDRFSGSKSGTSATLGITGLQTGDETDYYCGTWDSSLSAWVFSGGTKLTVL
For B15, the “IC50, FLIPR calcium mobilisation” value in experiment [1] is 117 nM; in experiment [2], 37 nM; in experiment [3], 71 nM. Also, the “IC50, PC12 cell survival” value in experiment [1] was determined as 670 nM.
